Measured values as given in publication PMC3823998, “Structural and Functional Characterization of the Redβ Recombinase from Bacteriophage λ” (PLoS ONE, 2013).
Where a chain is given by its changes, count along the chain named.

Columns and labels:
Assay in all cases: EMSA; glutaraldehyde-fixed; ssDNA EMSA: 10 nM DNA, 50 mM potassium phosphate pH 6.0, 5 mM EDTA, 5% glycerol, 0.1 mg/ml BSA, 37°C, 40 min, then 0.1% glutaraldehyde; second-strand EMSA: 5 nM each strand, 20 mM Tris-HCl pH 7.5, 5 mM MgCl2, 1 mM DTT, 0.1 mg/ml BSA, 37°C
Settings in all cases: protein: recombinant; tags: His6 removed; N-terminal GSH left; label: 5' Cy3
Redβ Y64A = biological target: T1, Redβ Y64A (Bacteriophage λ (Enterobacteria phage λ), UniProt P03698 1-261, Y64A)
T1 sequence: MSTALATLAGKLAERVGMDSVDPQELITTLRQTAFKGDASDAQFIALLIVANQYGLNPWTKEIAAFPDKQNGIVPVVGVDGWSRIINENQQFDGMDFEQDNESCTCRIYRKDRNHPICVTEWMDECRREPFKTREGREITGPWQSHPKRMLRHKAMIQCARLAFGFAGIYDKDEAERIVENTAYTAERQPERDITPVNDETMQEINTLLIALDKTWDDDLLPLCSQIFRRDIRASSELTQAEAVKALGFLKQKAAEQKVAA

Redβ D80A = biological target: T2, Redβ D80A (Bacteriophage λ (Enterobacteria phage λ), UniProt P03698 1-261, D80A)
T2 sequence: T1 sequence with A64Y, D80A

Redβ V77A = biological target: T3, Redβ V77A (Bacteriophage λ (Enterobacteria phage λ), UniProt P03698 1-261, V77A)
T3 sequence: T1 sequence with A64Y, V77A

Redβ K132A = biological target: T4, Redβ K132A (Bacteriophage λ (Enterobacteria phage λ), UniProt P03698 1-261, K132A)
T4 sequence: T1 sequence with A64Y, K132A

Redβ R152A = biological target: T5, Redβ R152A (Bacteriophage λ (Enterobacteria phage λ), UniProt P03698 1-261, R152A)
T5 sequence: T1 sequence with A64Y, R152A

Redβ G78A = biological target: T6, Redβ G78A (Bacteriophage λ (Enterobacteria phage λ), UniProt P03698 1-261, G78A)
T6 sequence: T1 sequence with A64Y, G78A

Q: How did the binding signal (Redβ Y64A) turn out when TGCGGATGGCTTAGAGCTTAATTGCTGAATCTGGTGCTGTAGCTCAACAT (ssDNA) [50-minus ssDNA] was run?
A: Its binding signal is 98 % of WT binding at 3 µM protein.

Q: What about the binding signal (Redβ D80A) of the same binder?
A: The binding signal was 87 % of WT binding at 3 µM protein.

Q: What about the binding signal (Redβ V77A) of the same binder?
A: The binding signal was 11 % of WT binding at 3 µM protein.

Q: What about the binding signal (Redβ K132A) of the same binder?
A: The binding signal was 82 % of WT binding at 3 µM protein.

Q: And the binding signal (Redβ R152A)?
A: Its binding signal is 13 % of WT binding at 3 µM protein.

Q: And the binding signal (Redβ G78A)?
A: The binding signal was 33 % of WT binding at 3 µM protein.
